# Results from the DeepSol protein solubility set.
# Experiment: soluble on expression in E. coli; label from the status in PepcDB or PDB records
row,Sequence,soluble on expression in E. coli
1,SLLLKQAIVYPITSQKFQGDVLVIGEKIAEVKPSIQPTQDMTVIDARALHLLPGFIDVHTHLGLYDEGTGWAGNDANETSEVSTPHIRSLDGIHPFDIAFQDAVQNGITTVHVMPGSQNIIGGTTCVIKTAGTCIDHMIIQEPAGLKIAFGENPKKVHSNGTKESITRMGIMGLLRESFYEAQHYGHEADFRMLPILKALRREIPVRIHAHRADDISSALRFATEFNLDLRIEHCTEGHFIVEELSKHNLKVSVGPTLTRRSKIELKNKTWDTYHILSKNGVEVSITTDHPYTPIQYLNVCAAVAVREGLDEKTALEGITIFPARNLRLEDRIGSIETGKDADLVLWTHHPFHYLAKPVLTMIDGKIIYKKNKKN,soluble
2,SLPLPLVVAVLDSEDEKEGRTCAIVAFGFRYIHPASGAQVDVPEGYVTDFASIPAPVRGLFPPFGRHAKAAVLHDWLYLIGEPGQRAFADRIFLDAMDDLRVSLVRRSIMHRAVRLAGGGAYAKEASTWARAFGNWRTGDRHTPPFTAESRYQAHWPVPPRPDFRP,not soluble
3,SLPMQHVHTSPVRDYRNRCARREGETVFQVVVEETDLRVTALAELATPMAAYVGELRAQLKVWMEFQPAFRHSLVPVEVPEGAPEVVRRMAHGARLVGVGPFAAVAGTIAQMVAERFVDVSPELIVENGGDLYLYSERDRVVGILPDPASGDMVGILVRAGTAPVSLCGSSARIGHSLSLGDGDLAVVRARDASLADAAATAFGNMLRRADDVAAVTERAAQLASIGIEGVYAQCGGRIGIWGDMELAVA,soluble
4,SLPVLAPVTKDPATSLYTIPFHDGASLVLDVAGPLVWSTCKGGQPPAEIPCSSPTCLLANAYPAPGCPAPSCGSDKHDKPCTAYPYNPVSGACAAGSLSHTRFVANTTDGSKPVSKVNVGVLAACAPSKLLASLPRGSTGVAGLANSGLALPAQVASAQKVANRFLLCLPTGGPGVAIFGGGPVPWPQFTQSMPYTPLVTKGGSPAHYISARSIVVGDTRVPVPEGALATGGVMLSTRLPYVLLRPDVYRPLMDAFTKALAAQHANGAPVARAVVAVAPFGVCYDTKTLGNNLGGYAVPNVQLGLDGGSDWTMTGKNSMVDVKQGTACVAFVEMKGVAAGDGRAPAVILGGAQMEDFVLDFDMEKKRLGFSRLPHFTGCGGL,soluble
5,SLPVSYIENQSAVINQGDFLTQLSNIKNYSSKLSTNFYDNYEKITNWVLSGANINELTQFNIQPQIMRGFDGFQNVLMTGYYSPILYARHSPQGQFKNPIYRMPVKKRLSRAQIYAGALAGKRLELAYSDSMLENFLLGVQGSGYVDFGDGNLNYFAYAGQNGYPYTAIGRLLVEDGEIPKEKMSIQAIREWGNRNPSRIQSLLERNEAYVFFKNDPSGKVKGSAGVPLVAMASVASDRNIIPSGSVLLVEVPDIDNNGNWLGTHKLHLMVALDVGGAVKGHHFDLYRGIGARAGHIAGLSKHYGRVWVLR,soluble
6,SLQLRPSFLLSSLRPSLTGARRLVETIFLGSRPWMPGTPRRLPRLPQRYWQMRPLFLELLGNHAQCPYGVLLKTHCPLRAAVTPAAGVCAREKPQGSVAAPEEEDTDPRRLVQLLRQHSSPWQVYGFVRACLRRLVPPGLWGSRHNERRFLRNTKKFISLGKHAKLSLQELTWKMSVRDCAWLRRSPGVGCVPAAEHRLREEILAKFLHWLMSVYVVELLRSFFYVTETTFQKNRLFFYRKSVWSKLQSIGIRQHLKRVQLREEG,not soluble
7,SLQMQGITGSNITVLELVERYLSLKTGVKHNTLANYKFVVNVLKKEEFAYKKVDDVKLSDAKIFLIKLQRDGRGYSSIHSIRGVLRPAFQMAVDDDLILKNPFGFELGTVLVNDSQKRQAVSPEDETKFLDFVKNDPHYNQYYDAFYILFKTGLRISEFCGLTVKDLDFKEDIINVNHQLQRTREMKYIIVSTKTTSGTRLLPMEADVKEAFLRILKNRRKPKREPMVDGYGGFLFLDKNGRPMVALHWEKYMQHAREKYNRENLLQLPPVTPHICRHTYCTNMANSGMNPKTLQYLMGHSDVSVTLNIYTHTGYDDAKKELARLKEARDELEKKKFITQKHAQTTHVSLIS,not soluble
8,SLRFVDEYRAPEQVMQLIEHLRERASHLSYTAERPLRIMEVCGGHTHAIFKFGLDQLLPENVEFIHGPGCPVCVLPMGRIDTCVEIASHPEVIFCTFGDAMRVPGKQGSLLQAKARGADVRIVYSPMDALKLAQENPTRKVVFFGLGFETTMPTTAITLQQAKARDVQNFYFFCQHITLIPTLRSLLEQPDNGIDAFLAPGHVSMVIGTDAYNFIASDFHRPLVVAGFEPLDLLQGVVMLVQQKIAAHSKVENQYRRVVPDAGNLLAQQAIADVFCVNGDSEWRGLGVIESSGVHLTPDYQRFDAEAHFRPAPQQVCDDPRARCGEVLTGKCKPHQCPLFGNTCNPQTAFGALMVSSEGACAAWYQYRQQESEA,soluble
9,SLRRWDQGLEKPRLDYSEFFTEDVGQLPGLTIWQIENFVPVLVEEAFHGKFYEADCYIVLKTFLDDSGSLNWEIYYWIGGEATLDKKACSAIHAVNLRNYLGAECRTVREEMGDESEEFLQVFDNDISYIEGGTASGFYTVEDTHYVTRMYRVYGKKNIKLEPVPLKGSSLDPRFVFLLDQGLDIYVWRGAQATLSNTTKARLFAEKINKNERKGKAEITLLVQGQEPPGFWDVLGGEPSEIKNHVPDDFWPPQPKLYKVGLGLGYLELPQINYKLSVEHKKRPKVELMPGMRLLQSLLDTRCVYILDCWSDVFIWLGRKSPRLVRAAALKLGQELCGMLHRPRHTVVSRSLEGTEAQVFKAKFKNWDDVLTVDYTRNAEAVLQGQGLSGKVKRDTEKTDQMKADLTALFLPRQPPMPLAEAEQLMEEWNEDLDGMEGFVLEGRKFTRLPEEEFGHFYTQDCYVFLCRYWVPVEYEEEEKTEDKEGKASAEAREGEEAAAEAEEKQPEEDFQCIVYFWQGREASNMGWLTFTFSLQKKFESLFPGKLEVVRMTQQQENPKFLSHFKRKFIIHRGKRKVTQGTLQPTLYQIRTNGSALCTRCIQINTDSSLLNSEFCFILKVPFESEDNQGIVYAWVGRASDPDEAKLAEDILNTMFDASYSKQVINEGEEPENFFWVGIGAQKPYDDDAEYMKHTRLFRCSNEKGYFAVTEKCSDFCQDDLADDDIMLLDNGQEVYMWVGTQTSQVEIKLSLKACQVYIQHTRSKEHERPRRLRLVRKGNEQRAFTRCFHAWSTFRQAPA,not soluble
10,SLSGRIVYNFNPGWRFHRGDIKGAEAVRFDDTSWQVVSVPHTVELMPAEASGCRNYQGVAWYRKHFVIPQDMKGKEVSLHFEGAMGKQVIYLNGKRVQEHLGGYLPFTVQLTEQGVQPGDSCLLAVMTDNSDDKNFPPGKRQYTLDFAYHGGIYRDVWMIGKSSVAITDALEADKVAGGGVFVHFDNISGKKAEVYVDTEVHNSGKQTRTVAVETVLADAGDVPVKRVSQQVKLQAGESKTVRQRFAVRNPKLWSPDSPYLYRIQSRVKAGHEVLDGGVTRVGIRKAEFKGKDGFWLNGKPFGQLVGANRHQDFAYVGNALPNSQQWRDAKRLRDAGCTIIRVAHYPQDPAFMDACDEMGLFVIVATPGWQYWNKNPEFAKLVHRNTREMIRRDRNHPSVLMWEPILNETPYPRDFALEALRITREEFPYPGRPVAAADVHSKGVAENYDVVYGWPGDDEKADRPEQCIFTREFGENVDDWYAHNNNNRASRSWGERPLLVQALSLSKSYDEMYRTTGQFVGGAQWHPFDHQRGYHPDPYFGGIYDAFRQPKYAYYAFRSQSAATLKHPVAECGPMVFIAHEMSPFSDADVVVFSNCDSVRLSVYDGTESRTLPVVHAQGHMPNAPVIFKDVWDFWEAREYSYKQKNWQKVNMVAEGIIDGKVVCTYKRMPSRRSTKLRMYVDTEGKQLVADGSDFIVVVAEVTDDSGNVRRLAKENIVFTVEGEGRIIGDASINANPRTVEFGSAPVLIRSTRKPGKIKVKAHVQFEGTNAPVATEIELESIPSELPFCYTEEG,not soluble
11,SLSKKATYPKVMCTQHPDSASKYISTQEEPGEAIEAAVVFGCDEYMPDYEGKATPYHQNVQIVSRFIEETDLIPGKDIFITPRAPSAAQENRFRQLMVMMSIAEANHGALEYSDVQAINEFVHPMTGTVGEILDAQQHMVDVGELAKKEFGVAMEVPRIIPLIEDAPALLHAKELAENTLLSWEKRFGAAPEKFRVFLGKSDSALSFGHVASTLSCKYAISGISELDLELDTSTGIIFGAGTLPFRGHLSLKNAENFFREYRGIGTITLQSAVRYSHDKGEAEALVRLAEERLPESPEIYSGEEKEEIVNLIGIFGARYNRIIREMSCTINQLAGLLPQQRDRLMHKGTGGYSRNVPDISGLVCLCRKDVGKELSASMPAEDLNLPRAIKFTGALYSIGLPPEFIGTGTALEEAREKLGEEACERLLKKYFPSLASDLSFASGYLDLNVASRFLPEACLKEIRKDIEVLRDTFSLKVQPEPSYRILLEMMQPDLLQAGTKGNCMDEEVSQLVCSTLTKMGKIRKALG,not soluble
